Results published in patent US20180031566A1 (VENTANA MEDICAL SYSTEMS, published 2018).

T1: recombinant protein for uPAR-Like domain 1 of C4.4a (amino acids 31-116) (human, UniProt O95274 31-116)
T1 construct: Recombinant domain used in ELISA
T1 sequence: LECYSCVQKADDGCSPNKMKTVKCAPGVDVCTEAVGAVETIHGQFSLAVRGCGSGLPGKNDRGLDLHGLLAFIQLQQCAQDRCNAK

T2: recombinant protein for uPAR-like domain 2 of C4.4a (amino acids 139-224) (human, UniProt O95274 139-224)
T2 construct: Recombinant domain used in ELISA
T2 sequence: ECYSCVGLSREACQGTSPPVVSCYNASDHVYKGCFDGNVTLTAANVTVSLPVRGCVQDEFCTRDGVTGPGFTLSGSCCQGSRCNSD


What was measured:
[1] = target: T1, recombinant protein for uPAR-Like …; assay: ELISA with recombinant domain proteins
[2] = target: T2, recombinant protein for uPAR-like …; assay: ELISA with recombinant domain proteins

binding result [1]	binding result [2]	Binder
binds	–	anti-C4.4a antibody clone S20H1L1 (antibody, V domains shown, Rabbit monoclonal antibody; also called SP245 (a S20H1L1 clone)) VH: QEQLEESGGGLVKPGGTLTLTCTASGFSLISTYYICWVRQAPGKGLEWIGCIPLSHSVSWYANWVNGRFSISKTSSTTVTLKMASLTDADTATYFCGRGSSGWGVDSKLWGPGTLVTVSS VL: AVLTQTPSPVSASVGGTVTINCQSSPSVASGYLSWFQQKPGQPPKLLIYRASTLVSGVPSRFKGSGSGTHFTLTISDVQCDDAATYYCAGAYSSRSDTTFGGGTEVVVK
–	binds	anti-C4.4a antibody clone S42H9L5 (antibody, V domains shown, Rabbit monoclonal antibody; also called SP246 (a S42H9L5 clone)) VH: QSLEESGGRLVKPDETLTLTCTVSGFSLNTVAISWVRQAPGKGLEWIGFIHPTVNTYYARWAKGRFTISRASSTTVDLKVTSLTFEDAATYFCVRGNAHYDIWGPGTLVTVSL VL: AFELTQTPSLVSAAVGGTVTISCQSSQSVYSDNYLAWYQQKPGQRPKLLIYKASDLASGVPSRFKGSGSGTEFTLTISDLECADAATYYCQSYYGVSSDSNAFGGGTEVVVK
